Data published in patent US20240024520A1, “AUTONOMOUS KNOB DOMAIN PEPTIDES” (UCB BIOPHARMA SRL, priority 2020, published 2024).

Biological target: C5 (Homo sapiens, UniProt P01031)
Experiment: Monoclonal phage screening ELISA, human C5
Type: binding
Conditions: anti-C5 ultralong CDR-H3; binder = OD>0.2 AU
Method: For the C5 libraries, a single round of enrichment was performed with either human or rat C5 protein. […] Phage were blocked for 30 minutes. Biotinylated antigen was added to the blocked phage at a concentration of 100 nM and incubated at room temperature with mixing.
Colonies were picked into a 96-well culture plate containing selective medium 2TY supplemented with 1% Glucose and 100 μg/ml Carbenicillin and was incubated at 37° C. until wells reached mid-log phase of growth prior to addition of M13K07 helper phage. The block was incubated without shaking for 1 hour to achieve infection and phage production using continued culture in selective media supplemented with 50 μg/ml Kanamycin and 100 μg/ml Carbenicillin.
Binding to antigen was assessed by monoclonal phage ELISA, 96-well flat bottom Nunc MaxiSorp plates (Thermofisher) were coated with a 2.5 μg/ml solution of human, mouse, or rat serum albumin, human C5 or mouse C5 diluted with PBS, and left overnight at 4° C. Negative control plate and Anti-myc tag plate were also prepared.
Monoclonal phage rescue supernatants were blocked with an equal volume of a 2% milk (w/v) in PBS, for serum albumin proteins, or 2% BSA and 2% milk (w/v) in PBS solution. The coating solution was removed from coated Nunc plates and each plate was blocked with 1% BSA in PBS (for C5 libraries) or 1% milk powder (for albumin library). Both phage and Nunc plates were blocked for 1 hour at room temperature. Nunc plates were washed using a 96-well microplate washer (BioTek) with a PBS solution contain 0.1% Tween20 (Sigma Aldrich). 100 of blocked phage solution was added to each well of Nunc MaxiSorp plate and left shaking at room temperature for 1 hour. Plates were washed and dried as previously described. 100 of an Anti-M13-Horse radish peroxidase conjugated antibody (GE Healthcare) diluted (1:5,000) in a 1% BSA or milk solution was added to each well and left shaking at room temperature for 1 hour. Plates were washed again and 50 μL of TMB solution (Merck Millipore) was added to each well. Plates were left shaking for 10 minutes. Absorbance was measured at 630 nm and 490 nm. Binding signals were obtained where Absorbance at 630 nm was >3-times the signal upon irrelevant antigen.
By monoclonal phage ELISA the following ultralong CDR-H3 sequences were identified as binders (OD>0.2 AU): […]

Chain of C5 (P01031 19-1676): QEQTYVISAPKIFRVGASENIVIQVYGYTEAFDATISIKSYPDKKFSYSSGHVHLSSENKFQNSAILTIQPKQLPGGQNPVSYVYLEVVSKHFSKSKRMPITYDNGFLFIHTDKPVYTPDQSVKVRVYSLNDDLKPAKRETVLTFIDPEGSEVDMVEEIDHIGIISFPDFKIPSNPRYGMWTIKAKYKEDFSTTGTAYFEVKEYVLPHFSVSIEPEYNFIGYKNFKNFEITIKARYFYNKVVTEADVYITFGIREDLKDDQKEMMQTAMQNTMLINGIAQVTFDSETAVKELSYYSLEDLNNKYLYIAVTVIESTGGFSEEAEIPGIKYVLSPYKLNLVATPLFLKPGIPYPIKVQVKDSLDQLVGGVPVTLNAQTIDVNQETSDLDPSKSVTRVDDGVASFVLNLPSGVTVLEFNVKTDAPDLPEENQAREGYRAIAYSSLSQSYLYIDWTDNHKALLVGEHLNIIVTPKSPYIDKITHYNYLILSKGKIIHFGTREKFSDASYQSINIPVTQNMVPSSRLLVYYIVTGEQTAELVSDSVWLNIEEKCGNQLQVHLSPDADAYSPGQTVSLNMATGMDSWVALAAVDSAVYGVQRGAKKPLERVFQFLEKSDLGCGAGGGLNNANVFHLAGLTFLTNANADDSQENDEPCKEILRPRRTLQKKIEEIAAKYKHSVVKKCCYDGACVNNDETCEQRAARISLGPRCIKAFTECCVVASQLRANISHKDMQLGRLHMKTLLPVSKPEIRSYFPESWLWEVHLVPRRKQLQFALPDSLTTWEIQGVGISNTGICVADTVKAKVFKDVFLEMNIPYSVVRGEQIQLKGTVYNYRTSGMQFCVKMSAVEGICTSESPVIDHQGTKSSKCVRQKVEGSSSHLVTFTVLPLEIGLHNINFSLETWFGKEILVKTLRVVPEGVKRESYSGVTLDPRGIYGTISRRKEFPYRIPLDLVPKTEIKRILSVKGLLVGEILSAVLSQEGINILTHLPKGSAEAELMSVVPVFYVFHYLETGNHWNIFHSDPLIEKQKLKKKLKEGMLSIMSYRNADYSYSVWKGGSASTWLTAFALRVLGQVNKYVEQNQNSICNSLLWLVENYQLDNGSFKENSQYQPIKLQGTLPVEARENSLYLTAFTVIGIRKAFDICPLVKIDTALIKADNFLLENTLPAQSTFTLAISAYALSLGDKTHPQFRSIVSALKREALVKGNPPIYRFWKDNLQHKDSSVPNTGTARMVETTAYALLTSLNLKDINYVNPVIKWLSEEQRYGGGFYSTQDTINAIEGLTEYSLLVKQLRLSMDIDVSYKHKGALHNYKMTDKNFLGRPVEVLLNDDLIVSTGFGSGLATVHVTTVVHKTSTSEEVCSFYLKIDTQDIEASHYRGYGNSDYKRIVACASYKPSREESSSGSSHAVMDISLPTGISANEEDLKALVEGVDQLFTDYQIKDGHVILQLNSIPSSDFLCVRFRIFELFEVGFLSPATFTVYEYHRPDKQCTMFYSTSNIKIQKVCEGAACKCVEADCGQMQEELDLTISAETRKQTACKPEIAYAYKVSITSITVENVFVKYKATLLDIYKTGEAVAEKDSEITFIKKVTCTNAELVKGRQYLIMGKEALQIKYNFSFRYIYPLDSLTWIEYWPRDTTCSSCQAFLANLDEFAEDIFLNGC

Specificity, Human:
545 (TTVHQRTLKNRNRPEGYGYQRHCTVGEECTDSCCDRYGLCTTSTETYTYEWYVD; Anti-C5 ultralong CDR-H3) [compound 545]
571 (TTVHQRTIKSGCPPGYKSGVDCSPGSECKWGCYAVDGRRYGGYGADSGVGSTYTHEWYVD; Anti-C5 ultralong CDR-H3) [compound 571]
569 (TTVHQRTAKRCPSNNEEATACRYSSVCGDYVCEGLSESYAQGWGACRRYACRDSYEWYVD; Anti-C5 ultralong CDR-H3) [compound 569]
543 (TTVHQRTLKNRNCPDGYGYQRHCTVGEDCTDHCCDAYGLCTSYTYTYTYEWYVD; Anti-C5 ultralong CDR-H3) [compound 543]
565 (TTVHQRTIKSGCPPGYKSGVDCSPGSECKWGCYAVDGRRYGGYGADSGVGSTYTHELYVE; Anti-C5 ultralong CDR-H3) [compound 565]
547 (TTVHQRTLKNRNCPDGYGYQRHCTVGEDCTDSCCDRYGLCTTSTETYTYEFYVN; Anti-C5 ultralong CDR-H3) [compound 547]
559 (TTVHQRTAKRCPSNNEDATACRYSSVCGDYVCEGLSESYAQGWGACRRYACRDSYEWYVD; Anti-C5 ultralong CDR-H3) [compound 559]
546 (TTVHQRTKKTCPLGYDLNDRCDHFNTCRVEECCKNGVVNAYGICEYAGGSATYTYEWYVE; Anti-C5 ultralong CDR-H3) [compound 546]
567 (TTVHQRTTKRCPSNNEDATACRYSSVCGDYVCEGLSESYAQGWGACRRYACRDSYEWYVD; Anti-C5 ultralong CDR-H3) [compound 567]

Same assay, conditions: knob domain of the anti-C5 ultralong CDR-H3

Specificity, Human:
593 (NCPDGYGYQRHCTVGEDCTERCCDNYGLCTSYTDT; Anti-C5 ultralong CDR-H3 knob domain) [compound 593]
584 (GCPTGTVAGVHCSPGSDCSWGCYDKDDRRVDGAGAASGLGST; Anti-C5 ultralong CDR-H3 knob domain) [compound 584]
582 (GCPPGYKSGVDCSPGSECKWGCYAVDGRRYGGYGADSGVGST; Anti-C5 ultralong CDR-H3 knob domain) [compound 582]
